The target of experiment [1] is actin of “ghost” muscle fibers (rabbit (endogenous in psoas muscle fibers)) (UniProt P68135). As to the kind of experiment: reconstitution into ghost muscle fibers, washes, SDS-PAGE; 20 µM labeled Tm added to ghost fibers in RB buffer for 15 hours at 4°C, then 20 µM troponin complex and 20 µM S1; unbound proteins removed by repeated washes with rigor buffer; 12% SDS gel quantified. Conditions: scale: actin per S1.

Experiment [2] deals with “ghost” fiber reconstituted with labeled Tm (rabbit (endogenous in psoas muscle fibers) | not stated) (UniProt P68135). The experiment is described as above. Conditions: scale: actin per TnI.

Sequence of myosin subfragment-1 (domain or fragment) (Q28641 whole entry, the tested form may be a part): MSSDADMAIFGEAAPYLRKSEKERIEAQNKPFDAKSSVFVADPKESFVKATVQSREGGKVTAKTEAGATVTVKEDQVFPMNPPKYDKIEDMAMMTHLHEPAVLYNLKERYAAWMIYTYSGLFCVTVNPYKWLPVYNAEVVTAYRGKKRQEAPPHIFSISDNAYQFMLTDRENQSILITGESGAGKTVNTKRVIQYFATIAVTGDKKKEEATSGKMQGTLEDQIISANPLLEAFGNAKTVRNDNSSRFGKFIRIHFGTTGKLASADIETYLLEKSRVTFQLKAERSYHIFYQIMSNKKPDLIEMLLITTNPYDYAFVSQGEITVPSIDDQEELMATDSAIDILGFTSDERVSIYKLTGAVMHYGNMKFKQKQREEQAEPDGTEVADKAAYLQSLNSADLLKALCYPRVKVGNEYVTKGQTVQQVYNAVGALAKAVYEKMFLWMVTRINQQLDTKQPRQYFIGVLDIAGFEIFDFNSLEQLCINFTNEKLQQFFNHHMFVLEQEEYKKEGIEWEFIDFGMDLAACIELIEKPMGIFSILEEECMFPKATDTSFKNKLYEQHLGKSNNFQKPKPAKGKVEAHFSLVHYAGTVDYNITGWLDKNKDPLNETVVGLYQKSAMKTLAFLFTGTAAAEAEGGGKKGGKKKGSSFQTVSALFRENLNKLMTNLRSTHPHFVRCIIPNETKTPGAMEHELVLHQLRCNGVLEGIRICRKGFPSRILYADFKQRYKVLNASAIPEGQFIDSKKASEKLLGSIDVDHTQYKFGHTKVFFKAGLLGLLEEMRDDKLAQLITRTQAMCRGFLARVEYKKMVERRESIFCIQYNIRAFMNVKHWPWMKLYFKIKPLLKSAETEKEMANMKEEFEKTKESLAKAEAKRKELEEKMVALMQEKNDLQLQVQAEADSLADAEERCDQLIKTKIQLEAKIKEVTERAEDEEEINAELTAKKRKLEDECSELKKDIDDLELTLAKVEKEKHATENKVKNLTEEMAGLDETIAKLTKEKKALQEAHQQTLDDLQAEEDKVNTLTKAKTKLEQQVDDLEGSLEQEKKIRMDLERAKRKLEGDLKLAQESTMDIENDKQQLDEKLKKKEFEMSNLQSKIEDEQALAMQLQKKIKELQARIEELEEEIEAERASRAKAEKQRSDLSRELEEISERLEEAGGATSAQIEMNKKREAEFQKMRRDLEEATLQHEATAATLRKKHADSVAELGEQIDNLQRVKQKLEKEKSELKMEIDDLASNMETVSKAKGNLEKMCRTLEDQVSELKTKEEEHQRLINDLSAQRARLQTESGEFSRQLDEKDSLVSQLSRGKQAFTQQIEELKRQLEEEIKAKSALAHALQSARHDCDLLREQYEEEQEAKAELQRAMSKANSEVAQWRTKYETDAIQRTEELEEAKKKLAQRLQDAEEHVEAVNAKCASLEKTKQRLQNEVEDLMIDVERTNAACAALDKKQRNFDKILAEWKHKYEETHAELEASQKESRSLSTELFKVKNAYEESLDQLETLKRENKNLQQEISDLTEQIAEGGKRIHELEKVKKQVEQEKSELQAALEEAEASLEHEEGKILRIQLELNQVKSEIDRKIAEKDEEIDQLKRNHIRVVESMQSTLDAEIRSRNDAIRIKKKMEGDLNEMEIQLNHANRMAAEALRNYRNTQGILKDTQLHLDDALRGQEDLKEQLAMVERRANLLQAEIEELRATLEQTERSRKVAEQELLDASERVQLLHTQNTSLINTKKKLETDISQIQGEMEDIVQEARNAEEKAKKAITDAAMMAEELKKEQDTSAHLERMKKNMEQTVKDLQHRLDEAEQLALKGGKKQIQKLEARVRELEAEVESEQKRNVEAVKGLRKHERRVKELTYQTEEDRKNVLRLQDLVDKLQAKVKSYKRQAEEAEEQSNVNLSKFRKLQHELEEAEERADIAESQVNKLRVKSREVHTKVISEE
Sequence of skeletal troponin complex (P02586 whole entry): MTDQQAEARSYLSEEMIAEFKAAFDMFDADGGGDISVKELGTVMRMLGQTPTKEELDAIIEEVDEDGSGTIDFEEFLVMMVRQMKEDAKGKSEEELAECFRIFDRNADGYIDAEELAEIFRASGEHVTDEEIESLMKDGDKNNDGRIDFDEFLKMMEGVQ
Sequence of skeletal troponin complex (P02643 whole entry): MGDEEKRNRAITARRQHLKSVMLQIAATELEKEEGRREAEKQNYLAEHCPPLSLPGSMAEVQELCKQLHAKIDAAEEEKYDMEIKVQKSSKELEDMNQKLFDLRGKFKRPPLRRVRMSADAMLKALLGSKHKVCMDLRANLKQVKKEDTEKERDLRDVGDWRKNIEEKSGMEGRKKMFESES
Sequence of skeletal troponin complex (P02641 whole entry): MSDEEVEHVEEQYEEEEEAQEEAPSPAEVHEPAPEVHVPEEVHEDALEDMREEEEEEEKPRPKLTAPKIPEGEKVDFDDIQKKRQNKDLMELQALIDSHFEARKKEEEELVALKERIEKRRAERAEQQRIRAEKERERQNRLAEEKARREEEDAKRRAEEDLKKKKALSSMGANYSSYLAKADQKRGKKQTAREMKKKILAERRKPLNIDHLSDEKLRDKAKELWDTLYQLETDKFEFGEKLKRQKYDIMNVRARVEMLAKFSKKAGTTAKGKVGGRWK

For “myosin subfragment-1 (domain or fragment)”, in experiment [1], the ratio of the S1:actin intensity in reconstituted ghost fibers (SDS-PAGE) is 1.

For the substance “skeletal troponin complex (from UniProt P02586 1-160; P02643 1-182; P02641 1-279)”, the ratio of TnI:actin in the reconstituted fiber (SDS-PAGE) in experiment [2] came to 4.5.

The record behind these values is paper PMC3118794.
